Assay results taken from paper PMC5669894.

Assays:
[1] = target: C-terminal SH3 domain of the growth factor receptor-bound protein 2 (Grb2) (UniProt P62993); assay: stopped-flow displacement kinetics (intrinsic fluorescence); pre-incubated complex of wild type Grb2 SH3C (10 μM) and Gab2 503-524 (10 μM) mixed with excess Grb2 SH3C W35Y/W36Y (100 μM and 200 μM); 25°C; 25mM HEPES, 100mM potassium acetate, pH 7.5
[2] = target: C-terminal SH3 domain of the growth factor receptor-bound protein 2 (Grb2) (UniProt P62993); assay: stopped-flow binding kinetics (intrinsic fluorescence); pseudo-first order; Grb2 SH3C constant at 0.5 μM, Gab2 503-524 peptide 1-10 μM (1-12 μM for P519A); 10°C; 25mM HEPES, 100mM potassium acetate, pH 7.5; apparent association and dissociation rate constants

Gab2 503-524 peptide, wild type, sequence (Q9UQC2 503-524): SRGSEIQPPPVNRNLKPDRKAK

koff [1] [s⁻¹] | koff [2] [s⁻¹] | kon [2] [M⁻¹ s⁻¹] | Kd [2] [nM] | Substance
350 | 53 | 4.3e+07 | – | Gab2 503-524 peptide, wild type
– | – | – | 12000 | Gab2 503-524 peptide, variant P519A
– | – | – | 2500 | Gab2 503-524 peptide, variant P512A
– | – | – | 2500 | Gab2 503-524 peptide, variant P510A
